Laboratory results published in IntAct's records for PubMed 22660413.

B1: Syntenin-1 (Mus musculus), O08992 (parent)
chain: MSLYPSLEDLKVDKVIQAQTAYSANPASQAFVLVDASAALPPDGNLYPKLYPELSQYMGLSLNEAEICESMPMVSGAPAQGQLVARPSSVNYMVAPVTGNDAGIRRAEIKQGIREVILCKDQDGKIGLRLKSIDNGIFVQLVQANSPASLVGLRFGDQVLQINGENCAGWSSDKAHKVLKQAFGEKITMTIRDRPFERTVTMHKDSSGHVGFIFKSGKITSIVKDSSAARNGLLTDHHICEINGQNVIGLKDAQIADILSTAGTVVTITIMPTFIFEHIIKRMAPSIMKSLMDHTIPEV
partner: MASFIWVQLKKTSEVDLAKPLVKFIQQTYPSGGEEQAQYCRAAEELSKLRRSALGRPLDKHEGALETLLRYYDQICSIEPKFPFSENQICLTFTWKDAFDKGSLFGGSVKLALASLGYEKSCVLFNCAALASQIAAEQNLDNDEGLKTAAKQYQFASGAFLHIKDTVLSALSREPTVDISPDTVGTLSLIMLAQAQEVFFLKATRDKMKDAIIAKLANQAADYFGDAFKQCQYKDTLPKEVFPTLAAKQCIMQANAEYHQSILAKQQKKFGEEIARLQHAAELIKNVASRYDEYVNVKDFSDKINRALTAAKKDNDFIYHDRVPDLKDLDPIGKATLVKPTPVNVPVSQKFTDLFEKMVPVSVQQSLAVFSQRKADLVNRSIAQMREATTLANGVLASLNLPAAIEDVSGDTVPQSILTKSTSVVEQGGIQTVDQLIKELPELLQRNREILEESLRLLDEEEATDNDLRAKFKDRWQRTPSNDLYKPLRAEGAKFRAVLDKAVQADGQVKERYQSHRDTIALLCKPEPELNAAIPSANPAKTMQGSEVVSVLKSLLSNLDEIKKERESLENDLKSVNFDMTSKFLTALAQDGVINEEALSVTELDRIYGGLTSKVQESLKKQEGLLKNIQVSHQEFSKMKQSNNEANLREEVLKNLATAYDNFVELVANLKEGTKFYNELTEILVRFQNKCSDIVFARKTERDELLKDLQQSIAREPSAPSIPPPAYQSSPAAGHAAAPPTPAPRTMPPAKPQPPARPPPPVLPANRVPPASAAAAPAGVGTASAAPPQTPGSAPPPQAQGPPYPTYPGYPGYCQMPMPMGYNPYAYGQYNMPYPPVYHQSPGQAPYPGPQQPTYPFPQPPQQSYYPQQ

Variants of: B1
Details: with pdc6i_mouse Pdcd6ip

| Variant | effect of a mutation on the interaction |
| --- | --- |
| Y4A;P5A;Y47A;P48A;Y51A;P52A | disrupting interaction |

Variants of: B1
Details: with pdc6i_mouse Pdcd6ip
Remark: another data set of the same source

| Variant | effect of a mutation on the interaction |
| --- | --- |
| Y4A;P5A;Y47A;P48A;Y51A;P52A | disrupting interaction |
| Y51A;P52A | disrupting interaction |
